Data on 2 molecules can be found in paper PMC4932183, “Structure and activation of pro-activin A” (Nature Communications, 2016).

First the molecules themselves.
B1: mature activin A (disulfide-linked dimer of the mature domain of inhibin βA) (ligand, human, UniProt P08476 311-426, looked up)
chain: GLECDGKVNICCKKQFFVSFKDIGWNDWIIAPSGYHANYCEGECPSHIAGTSGSSLSFHSTVINHYRMRGHSPFANLKSCCVPTKLRPMSMLYYDDGQNIIKKDIQNMIVEECGCS
notes: human inhibin βA chain (Uniprot P08476), mature domain, up to residue 426; residues marked m (Asp27m) count on the mature domain. numbers count on: the mature protein; Residues of the HRV 3C site could be left at the N-terminus of the complex-derived form; also called mature dimer; control activin A
B2: follistatin-288 (natural protein, UniProt P19883-2 30-317, looked up)
chain: GNCWLRQAKNGRCQVLYKTELSKEECCSTGRLSTSWTEEDVNDNTLFKWMIFNGGAPNCIPCKETCENVDCGPGKKCRMNKKNKPRCVCAPDCSNITWKGPVCGLDGKTYRNECALLKARCKEQPELEVQYQGRCKKTCRDVFCPGSSTCVVDQTNNAYCVTCNRICPEPASSEQYLCGNDGVTYSSACHLRKATCLLGRSIGLAYEGKCIKAKSCEDIQCTGGKKCLWDFKVGRGRCSLCDELCPDSKSDEPVCASDNATYASECAMKEAACSSGVLLEVKHSGSCN

Experiment [1] addresses T1, Avi-tagged follistatin-288, biotinylated (UniProt P19883-2 30-317, biotin (on the Avi tag, by BirA)).
T1 construct: source: biotinylated with BirA enzyme, purified by reverse phase chromatography
Kind of experiment: BLI; biotinylated Avi-tagged FST-288 immobilised on streptavidin biosensors; analytes in kinetic buffer (PBS, 0.1% bovine serum albumin, 0.02% Tween-20); 600 s association, 600 s dissociation; 30 °C. Particulars: both partners purified. In general terms: BLI is a label-free optical method that tracks binding on a fibre tip over time.

In experiment [2] the target is B1. Kind of experiment: cell-based or functional assay.
Experiment [3] has as its target T2, cleaved pro-activin A complex (pro-mature complex) (human, UniProt P08476 311-426).
T2 sequence (P08476 whole entry, looked up): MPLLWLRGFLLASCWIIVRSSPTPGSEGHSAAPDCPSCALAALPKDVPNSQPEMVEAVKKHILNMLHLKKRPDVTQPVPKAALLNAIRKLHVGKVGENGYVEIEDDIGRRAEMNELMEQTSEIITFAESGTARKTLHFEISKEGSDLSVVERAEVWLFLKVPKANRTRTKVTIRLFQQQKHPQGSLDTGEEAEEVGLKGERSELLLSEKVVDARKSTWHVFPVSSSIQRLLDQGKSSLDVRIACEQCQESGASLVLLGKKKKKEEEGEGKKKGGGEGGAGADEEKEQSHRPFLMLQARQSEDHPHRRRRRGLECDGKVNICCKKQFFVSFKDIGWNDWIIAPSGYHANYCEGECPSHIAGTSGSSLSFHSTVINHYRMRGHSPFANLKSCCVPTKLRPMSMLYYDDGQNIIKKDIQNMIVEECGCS
Kind of experiment: cell-based or functional assay.

Broadly, the Kd is the equilibrium constant for the complex coming apart. A high value points to weaker binding. Turning to B1, the Kd in experiment [1] stood at 0.209 nM.
In the case of B2, the “IC50 of FST-288 for inhibition of signalling by 60 pM mature activin A; activin-inducible luciferase reporter in HEK293T cells” value in experiment [2] was found to be 81 pM. Moreover, the “IC50 of FST-288 for inhibition of signalling by 60 pM pro-activin A complex; activin-inducible luciferase reporter in HEK293T cells” value in experiment [3] is 90 pM.
